Data set [1] concerns the target T1, PglC from H. pullorum (PglC (H. pu)) (Helicobacter pullorum, UniProt E1B268).
T1 construct: N-terminal His6-SUMO tag, tag cleavage not mentioned; E. coli BL21-RIL; DDM-solubilized membrane fraction, Ni-NTA
Kind of data set: UMP-Glo luminescence (UMP release), time course. The class given is biochemical. To be noted: 20 μM UDP-GlcNAc; 20 μM Und-P; 0.3 μM enzyme; 5 mM MgCl2; pH 7.5; 0.1% Triton X-100; 10% DMSO.

The test system of data set [2] is CC(C)=CCC/C(C)=C/CC/C(C)=C/CC/C(C)=C\CC/C(C)=C\CC/C(C)=C\CC/C(C)=C\CC/C(C)=C\CC/C(C)=C\CC/C(C)=C\CC/C(C)=C\COP(=O)(O)O. Kind of data set: purified protein. To be noted: 80 μM UDP-diNAcBac, 5 mM MgCl2, pH 7.5, room temperature, 0.1% Triton X-100, 10% DMSO.
Data set [3] has as its system CC(=O)N[C@H]1[C@@H](OP(=O)(O)OP(=O)(O)OC[C@H]2O[C@@H](n3ccc(=O)[nH]c3=O)[C@H](O)[C@@H]2O)O[C@H](C)[C@@H](NC(C)=O)[C@@H]1O. Kind of data set: purified protein. To be noted: 60 μM Und-P, 5 mM MgCl2, pH 7.5, room temperature, 0.1% Triton X-100, 10% DMSO.

T1 sequence (E1B268 entry or part of it): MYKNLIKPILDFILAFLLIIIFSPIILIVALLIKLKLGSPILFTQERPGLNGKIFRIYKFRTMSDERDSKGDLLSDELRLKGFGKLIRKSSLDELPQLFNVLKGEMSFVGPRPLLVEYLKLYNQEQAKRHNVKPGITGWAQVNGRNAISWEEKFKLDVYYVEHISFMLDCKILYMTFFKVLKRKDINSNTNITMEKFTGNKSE

As for `CC(=O)N[C@H]1[C@@H](OP(=O)(O)OP(=O)(O)OC[C@H]2O[C@@H](n3ccc(=O)[nH]c3=O)[C@H](O)[C@@H]2O)O[C@H](CO)[C@@H](O)[C@@H]1O` [UDP-GlcNAc], the “UMP-Glo luminescence (UMP release), time course” value in data set [1] is listed as “demonstrates that the H. pullorum PglC catalyzes turnover of these substrates”.

As to `CC(C)=CCC/C(C)=C/CC/C(C)=C/CC/C(C)=C\CC/C(C)=C\CC/C(C)=C\CC/C(C)=C\CC/C(C)=C\CC/C(C)=C\CC/C(C)=C\CC/C(C)=C\COP(=O)(O)O` [Und-P], in data set [1], the “UMP-Glo luminescence (UMP release), time course” value is reported as “demonstrates that the H. pullorum PglC catalyzes turnover of these substrates”.

On to “PglC from Campylobacter jejuni (SUMO-PglC) (Campylobacter jejuni subsp. jejuni NCTC 11168 = ATCC 700819)”, for which, in data set [2], the Km (as a rule, the substrate concentration at which the rate is half of its maximum) was 7.18 ± 1.37 µM and the kcat (usually the maximal rate divided by the concentration of active sites) turned out to be 5.17 ± 0.333 s⁻¹. Besides, in data set [3], the Km was 24.61 ± 3.30 µM and the kcat came out at 5.67 ± 0.333 s⁻¹.
